In data set [1] the test system is HeLa Kyoto. The data set can be described thus: solubility in G1/S (NP-40 vs SDS abundance) (log2 ratio); higher = more soluble. As to conditions: cell cycle stage: G1/S.
Data set [2] concerns HeLa Kyoto. The data set can be described thus: solubility change mitosis vs G1/S (difference of NP-40 vs SDS log2 ratios) (log2 ratio difference); higher = more soluble in mitosis.
Data set [3] concerns HeLa Kyoto. The data set can be described thus: melting temperature (median over replicates), in situ; higher = more thermally stable.
Data set [4] deals with HeLa Kyoto. Put plainly: thermal stability score vs G1/S (z-score of summed log2 fold changes over temperatures); higher = more thermally stable than in G1/S.
The mark [5] stands for this setting: cell cycle stage: early G1 (4.5 h after nocodazole release).

The source of these data is the supplement of paper PMC5998384.
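For melting temperature (median over replicates), in situ in this document: HeLa Kyoto cells synchronized by double thymidine or nocodazole block, proteins quantified by TMT10plex mass spectrometry, three independent biological replicates.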
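For solubility change mitosis vs G1/S (difference of NP-40 vs SDS log2 ratios) in this document: synchronized HeLa Kyoto cells (double thymidine block for G1/S, nocodazole release for mitosis), protein amounts in NP-40 versus SDS lysates quantified by mass spectrometry, three biological replicates.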
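For solubility in G1/S (NP-40 vs SDS abundance) in this document: HeLa Kyoto cells arrested at G1/S by double thymidine block, proteins quantified by TMT10plex mass spectrometry in mild NP-40 versus SDS extracts, three biological replicates.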
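For thermal stability score vs G1/S (z-score of summed log2 fold changes over temperatures) in this document: synchronized HeLa Kyoto cells, proteins quantified by TMT10plex mass spectrometry, three biological replicates, mitosis taken 0.5 h after nocodazole release, G1/S directly after double thymidine block.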

With “MDWVMKHNGPNDASDGTVRLRGLPFGCSKEEIVQFFQGLEIVPNGITLTMDYQGRSTGEAFVQFASKEIAENALGKHKERIGHRYIEIFRSSRSEIKGFYDPPRRLLGQRPGPYDRPIGGRGGYYGAGRGSMYDRMRRGGDGYDGGYGGFDDYGGYNNYGYGNDGFDDRMRDGRGMGGHGYGGAGDASSGFHGGHFVHMRGLPFRATENDIANFFSPLNPIRVHIDIGADGRATGEADVEFVTHEDAVAAMSKDKNNMQHRYIELFLNSTPGGGSGMGGSGMGGYGRDGMDNQGGYGSVGRMGMGNNYSGGYGTPDGLGGYGRGGGGSGGYYGQGGMSGGGWRGMY [HNRNPH3]”, the “solubility in G1/S (log2)” value with HeLa Kyoto [1] is -0.0906. For the same sequence, in the data set on HeLa Kyoto [2], the “solubility change mitosis (log2)” value is 0.282. In addition, the melting temperature is 45.4 °C in the data set on HeLa Kyoto [3] (cell cycle stage: G1/S) and 47.7 °C in the data set with HeLa Kyoto [3] (cell cycle stage: mitosis). Moreover, the results for the thermal stability score in the data set on HeLa Kyoto [4] (setting [5]) and in the data set with HeLa Kyoto [4] (cell cycle stage: mitosis) were 3.81 and 9.58, respectively.

As to “MFSLDSFRKDRAQHRQRQCKLPPPRLPPMCVNPTPGGTISRASRDLLKEFPQPKNLLNSVIGRALGISHAKDKLVYVHTNGPKKKKVTLHIKWPKSVEVEGYGSKKIDAERQAAAAACQLFKGWGLLGPRNELFDAAKYRVLADRFGSPADSWWRPEPTMPPTSWRQLNPESIRPGGPGGLSRSLGREEEEDEEEELEEGTIDVTDFLSMTQQDSHAPLRDSRGSSFEMTDDDSAIRALTQFPLPKNLLAKVIQIATSSSTAKNLMQFHTVGTKTKLSTLTLLWPCPMTFVAKGRRKAEAENKAAALACKKLKSLGLVDRNNEPLTHAMYNLASLRELGETQRRPCTIQVPEPILRKIETFLNHYPVESSWIAPELRLQSDDILPLGKDSGPLSDPITGKPYVPLLEAEEVRLSQSLLELWRRRGPVWQEAPQLPVDPHRDTILNAIEQHPVVVISGDTGCGKTTRIPQLLLERYVTEGRGARCNVIITQPRRISAVSVAQRVSHELGPSLRRNVGFQVRLESKPPSRGGALLFCTVGILLRKLQSNPSLEGVSHVIVDEVHERDVNTDFLLILLKGLQRLNPALRLVLMSATGDNERFSRYFGGCPVIKVPGFMYPVKEHYLEDILAKLGKHQYLHRHRHHESEDECALDLDLVTDLVLHIDARGEPGGILCFLPGWQEIKGVQQRLQEALGMHESKYLILPVHSNIPMMDQKAIFQQPPVGVRKIVLATNIAETSITINDIVHVVDSGLHKEERYDLKTKVSCLETVWVSRANVIQRRGRAGRCQSGFAYHLFPRSRLEKMVPFQVPEILRTPLENLVLQAKIHMPEKTAVEFLSKAVDSPNIKAVDEAVILLQEIGVLDQREYLTTLGQRLAHISTDPRLAKAIVLAAIFRCLHPLLVVVSCLTRDPFSSSLQNRAEVDKVKALLSHDSGSDHLAFVRAVAGWEEVLRWQDRSSRENYLEENLLYAPSLRFIHGLIKQFSENIYEAFLVGKPSDCTLASAQCNEYSEEEELVKGVLMAGLYPNLIQVRQGKVTRQGKFKPNSVTYRTKSGNILLHKSTINREATRLRSRWLTYFMAVKSNGSVFVRDSSQVHPLAVLLLTDGDVHIRDDGRRATISLSDSDLLRLEGDSRTVRLLKELRRALGRMVERSLRSELAALPPSVQEEHGQLLALLAELLRGPCGSFDVRKTADD [DHX30]”, the “solubility in G1/S (log2)” value in the data set with HeLa Kyoto [1] is -1.02. For the same sequence, the “solubility change mitosis (log2)” value with HeLa Kyoto [2] was 0.218. The melting temperature was 51.1 °C with HeLa Kyoto [3] (cell cycle stage: G1/S) and 51.2 °C with HeLa Kyoto [3] (cell cycle stage: mitosis). In addition, the thermal stability score is -0.697 in the data set with HeLa Kyoto [4] (setting [5]) and -0.349 with HeLa Kyoto [4] (cell cycle stage: mitosis).

Turning to “MSASGVLSFTQQGWEQVLAKVKRAVVYLDAACAESLHWGCGSTRLLEAVGGPDCHLREFEPDAIGGGAKQPKAVFVLSCLLKGRTVEILRDIICRSHFQYCVVVTTVSHAVHLTANHVPAAAAAEMEGQQPVFEQLEEKLCEWMGNMNYTAEVFHVPLLLAPVAPHFALTPAFASLFPLLPQDVHLLNSARPDKRKLGSLGDVDSTTLTPELLLQIRCLVSGLSSLCEHLGVREECFAVGSLSQVIAADLANYAPAKNRKKTAAGRASVVFVDRTLDLTGAVGHHGDNLVEKIISALPQLPGHTNDVMVNMIALTALHTEEENYNVVAPGCLSQSSDTTAKALWEALLNTKHKEAVMEVRRHLVEAASRENLPIKMSMGRVTPGQLMSYIQLFKNNLKALMNHCGLLQLGLATAQTLKHPQTAKWDNFLAFERLLLQSIGESAMSVVLNQLLPMIKPVTQRTNEDYSPEELLILLIYIYSVTGELTVDKDLCEAEEKVKKALAQVFCEESGLSPLLQKITDWDSSINLTFHKSKIAVDELFTSLRDIAGARSLLKQFKSVYVPGNHTHQASYKPLLKQVVEEIFHPERPDSVDIEHMSSGLTDLLKTGFSMFMKVSRPHPSDYPLLILFVVGGVTVSEVKMVKDLVASLKPGTQVIVLSTRLLKPLNIPELLFATDRLHPDLGF [SCFD2]”, the “solubility in G1/S (log2)” value in the data set with HeLa Kyoto [1] was -0.12. The “solubility change mitosis (log2)” value with HeLa Kyoto [2] is -0.0249. Also, the melting temperature was 49.8 °C with HeLa Kyoto [3] (cell cycle stage: G1/S) and 49.9 °C in the data set on HeLa Kyoto [3] (cell cycle stage: mitosis). Also, the thermal stability score was -0.157 with HeLa Kyoto [4] (setting [5]) and 0.192 in the data set on HeLa Kyoto [4] (cell cycle stage: mitosis).

Consider “MGPAPAGEQLRGATGEPEVMEPALEGTGKEGKKASSRKRTLAEPPAKGLLQPVKLSRAELYKEPTNEELNRLRETEILFHSSLLRLQVEELLKEVRLSEKKKDRIDAFLREVNQRVVRVPSVPETELTDQAWLPAGVRVPLHQVPYAVKGCFRFLPPAQVTVVGSYLLGTCIRPDINVDVALTMPREILQDKDGLNQRYFRKRALYLAHLAHHLAQDPLFGSVCFSYTNGCHLKPSLLLRPRGKDERLVTVRLHPCPPPDFFRPCRLLPTKNNVRSAWYRGQSPAGDGSPEPPTPRYNTWVLQDTVLESHLQLLSTILSSAQGLKDGVALLKVWLRQRELDKGQGGFTGFLVSMLVVFLVSTRKIHTTMSGYQVLRSVLQFLATTDLTVNGISLCLSSDPSLPALADFHQAFSVVFLDSSGHLNLCADVTASTYHQVQHEARLSMMLLDSRADDGFHLLLMTPKPMIRAFDHVLHLRPLSRLQAACHRLKLWPELQDNGGDYVSAALGPLTTLLEQGLGARLNLLAHSRPPVPEWDISQDPPKHKDSGTLTLGLLLRPEGLTSVLELGPEADQPEAAKFRQFWGSRSELRRFQDGAIREAVVWEAASMSQKRLIPHQVVTHLLALHADIPETCVHYVGGPLDALIQGLKETSSTGEEALVAAVRCYDDLSRLLWGLEGLPLTVSAVQGAHPVLRYTEVFPPTPVRPAFSFYETLRERSSLLPRLDKPCPAYVEPMTVVCHLEGSGQWPQDAEAVQRVRAAFQLRLAELLTQQHGLQCRATATHTDVLKDGFVFRIRVAYQREPQILKEVQSPEGMISLRDTAASLRLERDTRQLPLLTSALHGLQQQHPAFSGVARLAKRWVRAQLLGEGFADESLDLVAAALFLHPEPFTPPSSPQVGFLRFLFLVSTFDWKNNPLFVNLNNELTVEEQVEIRSGFLAARAQLPVMVIVTPQDRKNSVWTQDGPSAQILQQLVVLAAEALPMLEKQLMDPRGPGDIRTVFRPPLDIYDVLIRLSPRHIPRHRQAVDSPAASFCRGLLSQPGPSSLMPVLGYDPPQLYLTQLREAFGDLALFFYDQHGGEVIGVLWKPTSFQPQPFKASSTKGRMVMSRGGELVMVPNVEAILEDFAVLGEGLVQTVEARSERWTV [NOL6]”, for which the “solubility in G1/S (log2)” value in the data set with HeLa Kyoto [1] is -1.58. Besides, the “solubility change mitosis (log2)” value in the data set on HeLa Kyoto [2] was 0.851. Further, the melting temperature in the data set with HeLa Kyoto [3] (cell cycle stage: G1/S) was 52.4 °C; in the data set with HeLa Kyoto [3] (cell cycle stage: mitosis), 51.4 °C. Besides, the values for the thermal stability score in the data set on HeLa Kyoto [4] (setting [5]) and in the data set with HeLa Kyoto [4] (cell cycle stage: mitosis) were -1.55 and -1.79, respectively.
